Test results published in PMC5387714.

Columns and labels:
Val176 CD16a (human) = Val176 CD16a (human) (UniProt P08637); assay: MST; ligands (HER2, CD16a, FcRn) labelled with RED-NHS; 10 μL labelled ligand mixed with 10 μL gradient mAb; Monolith NT.115, 40% IR-laser power; fit with the Hill equation in Prism
Human FcRn (human) = Human FcRn (human) (UniProt P55899); assay: as above
Phe176 CD16a (human) [1] = biological target: Phe176 CD16a (human) (UniProt P08637); assay: as above
Phe176 CD16a (human) [2] = biological target: Phe176 CD16a (human) (UniProt P08637)

Sequence of UniProt P55899 (P55899 24-297): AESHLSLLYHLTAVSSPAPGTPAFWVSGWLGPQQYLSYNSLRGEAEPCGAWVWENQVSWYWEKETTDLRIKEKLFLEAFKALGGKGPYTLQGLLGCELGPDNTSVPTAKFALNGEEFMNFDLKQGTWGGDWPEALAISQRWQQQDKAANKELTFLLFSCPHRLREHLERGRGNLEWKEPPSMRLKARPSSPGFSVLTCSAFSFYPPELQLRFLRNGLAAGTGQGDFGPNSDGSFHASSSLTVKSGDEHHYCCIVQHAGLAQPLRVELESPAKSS

Substance	Kd (Val176 CD16a (human)) [nM]	Kd (Human FcRn (human)) [nM]	Kd (Phe176 CD16a (human) [1]) [nM]	ADCC (LDH release), SK-BR-3 target cells, human PBMCs as effector cells, E/T 50/1; fold against pertuzumab^Fuc+SA+; allotype of the donors' FcγRIIIa not stated (Phe176 CD16a (human) [2]) [fold]
Pertuzumab^Fuc−SA− (antibody)	0.02	0.82	0.13	20
Pertuzumab^Fuc+SA− (antibody)	–	0.83	0.45	–
Pertuzumab^Fuc+SA+ (antibody)	0.35	0.86	1.31	–
Pertuzumab^Fuc−SA+ (antibody)	–	0.84	0.29	–
